Results reported in patent publication US20260007703A1.

Biological target: CD47 on A20 murine lymphoma cells (mouse) (UniProt Q61735)
Test: cell-based or functional assay

UniProt Q61735, sequence (Q61735 19-303): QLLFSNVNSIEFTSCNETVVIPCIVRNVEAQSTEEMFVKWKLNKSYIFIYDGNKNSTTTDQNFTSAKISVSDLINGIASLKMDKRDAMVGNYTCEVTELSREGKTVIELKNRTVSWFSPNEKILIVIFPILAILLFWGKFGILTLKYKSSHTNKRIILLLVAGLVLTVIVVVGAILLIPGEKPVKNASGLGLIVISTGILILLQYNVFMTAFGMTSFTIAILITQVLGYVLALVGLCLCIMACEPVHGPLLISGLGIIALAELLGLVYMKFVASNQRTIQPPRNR

## FITC-labeled anti-mouse CD47 monoclonal antibody, clone miap301
  phagocytosis of DiI-labelled A20 tumor cells by bone marrow-derived macrophages: 60 % increase
